Measurements as given in patent US20110237503A1 (Eli Lilly, published 2011).
Where no end group is shown, it is not given here. Side-chain parts run from the residue outwards. [ ]: non-standard residue; d: D form. maleimide = maleimide end of mPEG-20 kDa maleimide, which attaches the 20 kDa PEG to the Cys thiol; 1Nal = N[C@@H](Cc1cccc2ccccc12)C(=O)O; Aib = CC(C)(N)C(=O)O

What was measured:
[1] = target: T1, human glucose-dependent insulinotropic polypeptide receptor (hGIP-R) (human, UniProt P48546 22-466); experiment: cell-based or functional assay
T1 sequence (looked up): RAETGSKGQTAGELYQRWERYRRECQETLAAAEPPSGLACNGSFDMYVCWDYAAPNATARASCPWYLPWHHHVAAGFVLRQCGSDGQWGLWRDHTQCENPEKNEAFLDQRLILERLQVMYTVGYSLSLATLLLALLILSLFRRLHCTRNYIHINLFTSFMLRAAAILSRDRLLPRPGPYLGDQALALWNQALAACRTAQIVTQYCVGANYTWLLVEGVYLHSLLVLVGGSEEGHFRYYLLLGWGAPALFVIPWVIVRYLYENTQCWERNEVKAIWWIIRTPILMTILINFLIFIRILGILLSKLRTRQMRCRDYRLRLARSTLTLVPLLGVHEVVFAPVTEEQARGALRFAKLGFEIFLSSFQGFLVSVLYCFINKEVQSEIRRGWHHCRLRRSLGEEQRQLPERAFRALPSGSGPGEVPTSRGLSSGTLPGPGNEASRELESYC

[2] = target: T2, human glucagon-like peptide 1 receptor (hGLP-1-R) (human, UniProt P43220 24-463); experiment: cell-based or functional assay
[3] = target: T1, human glucose-dependent insulinotropic …; experiment: SPA competition binding assay
[4] = target: T2, human glucagon-like peptide 1 receptor …; experiment: SPA competition binding assay
[5] = target: T1, human glucose-dependent insulinotropic …; experiment: SPA competition, [125I]GIP displacement, hGIP-R CHO-S membranes
Protocol: The peptides analogs are serially diluted into binding buffer. […] Then, 90 μL membranes (4 μg/well), 50 μL [¹²⁵I] […] Plates are read with a MicroBeta® scintillation counter after 12 hours of settling time at room temperature.

[6] = target: T2, human glucagon-like peptide 1 receptor …; experiment: SPA competition, I-125 GLP-1 displacement, hGLP-1-R 293HEK membranes
Protocol: The binding buffer contains 25 mM HEPES, pH 7.4, 2.5 mM CaCl₂, 1 mM MgCl₂, 0.1% fatty acid free BSA, 0.003% Tween20, and Roche Complete™ Inhibitors without EDTA. […] The peptide analog is dissolved in PBS and serially diluted in binding buffer. […] Plates are read with a PerkinElmer Life and Analytical Sciences Trilux MicroBeta® scintillation counter after 12 hours of settling time at room temperature.
The IC₅₀ concentration is converted to Ki using the Cheng-Prusoff equation.

[7] = target: T3, human glucagon receptor (hGlucR) (human, UniProt P47871 26-477); experiment: ratio of Ki values from SPA competition binding assays (Gluc-R against GIP-R and GLP-1-R)
T3 construct: whole, on cells
T3 sequence (P47871 26-477): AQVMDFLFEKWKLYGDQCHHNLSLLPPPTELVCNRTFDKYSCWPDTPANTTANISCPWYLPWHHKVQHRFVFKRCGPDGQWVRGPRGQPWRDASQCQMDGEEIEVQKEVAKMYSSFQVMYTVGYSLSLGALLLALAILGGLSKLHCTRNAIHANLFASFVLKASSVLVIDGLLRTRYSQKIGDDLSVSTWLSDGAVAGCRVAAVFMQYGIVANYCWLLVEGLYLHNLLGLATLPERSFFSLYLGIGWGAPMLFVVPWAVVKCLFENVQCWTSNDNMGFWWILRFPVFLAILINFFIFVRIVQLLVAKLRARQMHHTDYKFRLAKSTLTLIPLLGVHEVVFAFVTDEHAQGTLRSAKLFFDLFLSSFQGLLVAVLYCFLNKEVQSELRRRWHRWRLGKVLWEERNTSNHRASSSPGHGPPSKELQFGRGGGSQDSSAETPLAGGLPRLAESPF

In the case of Y[Aib]EGTFTSDYSI[Aib]LDKIAQRA[1Nal]VQWLIA[Aib]KGKKQEWKHQITQC([acetamide-mPEG 20 kDa])C([acetamide-mPEG 20 kDa])-NH2, the “EC50 (relative), intracellular cAMP in hGIP-R-CHO-S cells, HTRF” value [1] is reported as 207 pM, the “EC50 (relative), intracellular cAMP in hGLP-1-R-293HEK cells, HTRF” value [2] is reported as 959 pM and the Ki [3] is reported as under 100000 pM. For the same binder, the Ki [4] was under 100000 pM, the Ki [5] was 9220 pM and the Ki [6] was 6200 pM. For the same binder, the “selectivity ratio versus Gluc-R” value [7] was at least 100 times.

For Y[Aib]EGTFTSDYSI[Aib]LDKIAQRA[1Nal]VQWLIA[Aib]KGKKQEWKHQITQ (not fully specified (C-terminus), Not PEGylated) [Example 1 (Aib2, Aib13, Nal22, Aib29 GIP analog, 42 residues)], the “EC50 (relative), intracellular cAMP in hGIP-R-CHO-S cells, HTRF” value [1] was 5 pM, the “EC50 (relative), intracellular cAMP in hGLP-1-R-293HEK cells, HTRF” value [2] was 36 pM and the Ki [3] was under 100000 pM. For the same binder, the Ki [4] was under 100000 pM, the Ki [5] was 44 pM and the Ki [6] was 96 pM. The “selectivity ratio versus Gluc-R” value [7] was at least 100 times.

In the case of Y[Aib]EGTFTSDYSI[Aib]LDKIAQRA[1Nal]VQWLIA[Aib]KGKKQEWKHQITQC([maleimide-mPEG 20 kDa])C([maleimide-mPEG 20 kDa])-NH2 (also called Ex 4) [Aib2, Aib13, Nal22, Aib29, Cys43(PEG20K), Cys44(PEG20K)-GIP (Example 4, PEGylated with mPEG-MAL)], the “EC50 (relative), intracellular cAMP in hGIP-R-CHO-S cells, HTRF” value [1] is reported as 277 pM, the “EC50 (relative), intracellular cAMP in hGLP-1-R-293HEK cells, HTRF” value [2] is reported as 844 pM and the Ki [3] is reported as under 100000 pM. The Ki [4] was under 100000 pM, the Ki [5] was 8230 pM and the Ki [6] was 5270 pM. The “selectivity ratio versus Gluc-R” value [7] was at least 100 times.

Y[Aib]EGTFTSDYSI[Aib]LDKIAQRAFVQWLIA[Aib]KGKKQEWKHQITQ (not fully specified (C-terminus), Not PEGylated) [Example 2 (Aib2, Aib13, Aib29 GIP analog, 42 residues)] was tested, and the “EC50 (relative), intracellular cAMP in hGIP-R-CHO-S cells, HTRF” value [1] was 23 pM, the “EC50 (relative), intracellular cAMP in hGLP-1-R-293HEK cells, HTRF” value [2] was 45 pM and the Ki [3] was under 100000 pM. It also gave a Ki [4] of under 100000 pM, a Ki [5] of 23 pM and a Ki [6] of 59 pM. The “selectivity ratio versus Gluc-R” value [7] was at least 100 times.

For Y[Aib]EGTFTSDYSI[Aib]LDKIAQRAFVQWLIA[Aib]KGKKQEWKHQITQC([maleimide-mPEG 20 kDa])C([maleimide-mPEG 20 kDa])-NH2 [Aib2, Aib13, Aib29, Cys43(PEG20K), Cys44(PEG20K)-GIP (Example 3, PEGylated with mPEG-MAL)], the “EC50 (relative), intracellular cAMP in hGIP-R-CHO-S cells, HTRF” value [1] was 244 pM, the “EC50 (relative), intracellular cAMP in hGLP-1-R-293HEK cells, HTRF” value [2] was 1110 pM and the Ki [3] was under 100000 pM. The Ki [4] was under 100000 pM, the Ki [5] was 9790 pM and the Ki [6] was 9000 pM. The “selectivity ratio versus Gluc-R” value [7] was at least 100 times.
